This note sets out measurements from FireProtDB (doi:10.1021/bi060038+).

What is called Tm is the temperature at the midpoint of the melting transition.

Sequences and labels used below:
B1: Phosphocarrier protein HPr, P08877 (parent)
chain: MAQKTFKVTADSGIHARPATVLVQTASKYDADVNLEYNGKTVNLKSIMGVMSLGIAKGAEITISASGADENDALNALEETMKSEGLGE

This series covers variants of B1. The settings on record: Bacillus subtilis (strain 168), pH 7, CD, sodium phosphate 10 mM, reversible: Yes, structure 2HPR, whole UniProt chain shown; for ddG of mutation (higher = less stable) / denaturant m value / unfolding free energy: 25 °C; for Tm / change of melting temperature, mutant - wild type (higher = more stable) / unfolding enthalpy (van 't Hoff): Thermal.

On to A2K N71E, for which the midpoint of thermal melting (Tm) came to 79.6 °C; the “change of melting temperature, mutant - wild type (higher = more stable)” value worked out at 6.6 °C; the “unfolding enthalpy (van 't Hoff)” value came out at 85 kcal/mol. In addition, where the note is “GdnHCl”, the “ddG of mutation (higher = less stable)” value was -1.1 kcal/mol, the denaturant m value came to 3.37 kcal/mol/M and the unfolding free energy was determined as 4.5 kcal/mol. Moreover, for the setting “Urea”, the “ddG of mutation (higher = less stable)” value is -1.1 kcal/mol, the denaturant m value worked out at 0.95 kcal/mol/M and the unfolding free energy is 6.1 kcal/mol.
As for A2R N71E, the Tm worked out at 83.1 °C; the “change of melting temperature, mutant - wild type (higher = more stable)” value stood at 10.1 °C; the “unfolding enthalpy (van 't Hoff)” value stood at 91 kcal/mol. Also, under “GdnHCl”, the “ddG of mutation (higher = less stable)” value was -1.5 kcal/mol, the denaturant m value is 3.39 kcal/mol/M and the unfolding free energy turned out to be 4.9 kcal/mol.
